Experimental data reported in the supplement of paper PMC9112550, “Optimization of the antimicrobial peptide Bac7 by deep mutational scanning” (BMC Biology, 2022).

tested on: Escherichia coli TOP10; test: shrunken log2 fold change of peptide-encoding DNA abundance (4.5 h post-induction vs induction); higher = less antimicrobial activity (less host growth inhibition); details: time post-induction: 4.5 h; library: site-saturation at positions 5, 18, 19, 20
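Note: peptides expressed intracellularly from a pBAD plasmid library in pooled LB shake-flask culture, induced with 0.3% L-arabinose, DNA abundance read by NGS, three biological replicates, DESeq2 with apeglm shrinkage.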

Point of comparison: RRIRIRPPRLPRPRPRPKDGPRP, “shrunken log2 fold change” value -0.105. Against it:
- RRIRPRPPRLPRPRPRPNSMPRP — within 0.2 log units, -0.251
- RRIRWRPPRLPRPRPRPEPYPRP — within 0.2 log units, 0.0876
- RRIRNRPPRLPRPRPRPWPTPRP — higher, 0.216
- RRIRKRPPRLPRPRPRPKYYPRP — within 0.2 log units, -0.0776
- RRIRCRPPRLPRPRPRPSCAPRP — within 0.2 log units, -0.0944
- RRIRVRPPRLPRPRPRPEFRPRP — higher, 0.463
- RRIRVRPPRLPRPRPRPRKDPRP — within 0.2 log units, 0.0324
- RRIRLRPPRLPRPRPRPSIEPRP — lower, -0.602
- RRIRMRPPRLPRPRPRPVAPPRP — higher, 0.945
- RRIRMRPPRLPRPRPRPKYPPRP — within 0.2 log units, -0.00805
- RRIRQRPPRLPRPRPRPRPKPRP — higher, 0.936
- RRIRCRPPRLPRPRPRPFYHPRP — lower, -0.668
- RRIRGRPPRLPRPRPRPPAGPRP — higher, 1.37
- RRIRRRPPRLPRPRPRPHRGPRP — within 0.2 log units, -0.0548
- RRIRCRPPRLPRPRPRPPDKPRP — within 0.2 log units, 0.0264
- RRIRGRPPRLPRPRPRPTMFPRP — higher, 0.521
- RRIRPRPPRLPRPRPRPWLRPRP — higher, 0.421
- RRIRARPPRLPRPRPRPGYNPRP — lower, -0.403
- RRIRVRPPRLPRPRPRPPWNPRP — within 0.2 log units, 0.0143
- RRIRIRPPRLPRPRPRPWKAPRP — within 0.2 log units, -0.00804
- RRIRYRPPRLPRPRPRPADSPRP — within 0.2 log units, -0.212
- RRIRNRPPRLPRPRPRPMKYPRP — within 0.2 log units, -0.164
- RRIRLRPPRLPRPRPRPFSRPRP — within 0.2 log units, -0.199
- RRIRHRPPRLPRPRPRPPVPPRP — higher, 0.441
- RRIRWRPPRLPRPRPRPCNGPRP — within 0.2 log units, -0.0973
- RRIRWRPPRLPRPRPRPTGQPRP — within 0.2 log units, -0.0283
- RRIRPRPPRLPRPRPRPTTHPRP — within 0.2 log units, 0.0944
- RRIRMRPPRLPRPRPRPVIEPRP — within 0.2 log units, -0.0535
- RRIRVRPPRLPRPRPRPMGPPRP — higher, 0.24
- RRIRCRPPRLPRPRPRPEICPRP — within 0.2 log units, 0.0631
- RRIRHRPPRLPRPRPRPHWLPRP — within 0.2 log units, -0.123
- RRIRCRPPRLPRPRPRPMYDPRP — within 0.2 log units, -0.0891
- RRIRCRPPRLPRPRPRPMVNPRP — within 0.2 log units, -0.0109
- RRIRSRPPRLPRPRPRPWHLPRP — within 0.2 log units, -0.273
- RRIRSRPPRLPRPRPRPRGWPRP — higher, 0.624
- RRIRDRPPRLPRPRPRPSNLPRP — within 0.2 log units, -0.0257
- RRIRHRPPRLPRPRPRPPEFPRP — within 0.2 log units, -0.0433
- RRIRLRPPRLPRPRPRPMLEPRP — higher, 0.0968
- RRIRMRPPRLPRPRPRPSLPPRP — within 0.2 log units, -0.0418
- RRIRKRPPRLPRPRPRPMQEPRP — within 0.2 log units, 0.0391
- RRIRSRPPRLPRPRPRPVSTPRP — within 0.2 log units, -0.187
- RRIRIRPPRLPRPRPRPHSMPRP — lower, -0.382
- RRIRNRPPRLPRPRPRPDITPRP — within 0.2 log units, -0.0553
- RRIRFRPPRLPRPRPRPHNDPRP — lower, -0.81
- RRIRIRPPRLPRPRPRPAKYPRP — within 0.2 log units, -0.247
- RRIRVRPPRLPRPRPRPPEAPRP — within 0.2 log units, -0.0358
- RRIRVRPPRLPRPRPRPQWNPRP — lower, -0.386
- RRIRERPPRLPRPRPRPKSFPRP — within 0.2 log units, 0.0203
- RRIRKRPPRLPRPRPRPYNIPRP — within 0.2 log units, -0.133
- RRIRCRPPRLPRPRPRPSDQPRP — within 0.2 log units, -0.0132
- RRIRERPPRLPRPRPRPPWAPRP — higher, 0.176
- RRIRTRPPRLPRPRPRPKHFPRP — within 0.2 log units, -0.0888
- RRIRCRPPRLPRPRPRPDEWPRP — within 0.2 log units, -0.0372
- RRIRSRPPRLPRPRPRPHFIPRP — lower, -0.344
- RRIRDRPPRLPRPRPRPCVYPRP — within 0.2 log units, -0.0478
- RRIRNRPPRLPRPRPRPTFLPRP — within 0.2 log units, -0.272
- RRIRERPPRLPRPRPRPEPNPRP — higher, 0.366
- RRIRLRPPRLPRPRPRPTTYPRP — within 0.2 log units, -0.182
- RRIRQRPPRLPRPRPRPHLCPRP — within 0.2 log units, 0.0292
- RRIRYRPPRLPRPRPRPTPLPRP — within 0.2 log units, 0.0136
- RRIRSRPPRLPRPRPRPSAYPRP — within 0.2 log units, -0.0159
- RRIRYRPPRLPRPRPRPALDPRP — within 0.2 log units, -0.132
- RRIRFRPPRLPRPRPRPMRQPRP — higher, 0.0953
- RRIRRRPPRLPRPRPRPNPPPRP — higher, 0.451
- RRIRIRPPRLPRPRPRPMPYPRP — within 0.2 log units, -0.0219
- RRIRNRPPRLPRPRPRPHTMPRP — within 0.2 log units, -0.298
- RRIRNRPPRLPRPRPRPIKSPRP — within 0.2 log units, -0.245
- RRIRSRPPRLPRPRPRPEEDPRP — within 0.2 log units, -0.00277
- RRIRNRPPRLPRPRPRPFKCPRP — within 0.2 log units, -0.0598
- RRIRWRPPRLPRPRPRPHYRPRP — within 0.2 log units, 0.0266
- RRIRTRPPRLPRPRPRPIYSPRP — lower, -0.571
- RRIRTRPPRLPRPRPRPSRTPRP — higher, 0.305
- RRIRYRPPRLPRPRPRPTVKPRP — lower, -0.428
- RRIRFRPPRLPRPRPRPTATPRP — higher, 0.355
